Experimental data taken from article PMC3555993, “Structural and Functional Analysis of the DEAF-1 and BS69 MYND Domains” (PLoS ONE, 2013).

B1: human DEAF-1 MYND domain (residues 501–544) (domain or fragment)
chain: GAMEQSCVNCGREAMSECTGCHKVNYCSTFCQRKDWKDHQHICGQSA
notes: N-terminal insertion of three amino acids GAM; DEAF-1, human, MYND domain, residues 501-544; 15N- or 15N/13C-labelled for NMR; also called short construct; source: E. coli BL21(DE3), purified (Ni-NTA, TEV cleavage, second Ni column, Superdex 75); not shown: poly-histidine tag, N-terminal, cleaved; thioredoxin, N-terminal, cleaved

Assays:
[1] = target: B1; test: NMR titration; 1 mM 15N-labeled DEAF-1 MYND titrated with unlabeled peptide (SMRT up to 9-fold, NCoR up to 5-fold molar excess); chemical shift perturbations fitted to a binding isotherm; fast exchange; conditions: both partners purified
[2] = target: the molecule itself; test: AUC; sedimentation velocity, concentration-dependent; continuous sedimentation distribution at 86 µM DEAF-1 MYND; fitted to a self-association model; dimer to monomers

Row | Binder | Kd [1] [mM] | Kd [2] [mM] | stoichiometry N [2]
1 | SNPPPLISSA (silencing mediator of retinoid and thyroid receptor (SMRT), residues 1111-1120; Unlabelled peptide; also called SMRT peptide) [SMRT corepressor peptide (residues 1111–1120 of SMRT)] | 5.3 ± 0.54 |  | 
2 | B1 |  | 0.0005 ± 0.0001 | 2
3 | RPPPPLIPSS (nuclear receptor corepressor (NCoR), residues 1031-1040; Unlabelled peptide; also called NCoR peptide) [NCoR corepressor peptide (residues 1031–1040 of NCoR)] | 3.08 ± 0.12 |  | 
